From article PMC7939381, “MMP activation–associated aminopeptidase N reveals a bivalent 14-3-3 binding motif” (The Journal of Biological Chemistry, 2020) come the findings set out here.

Where no end group is shown, it is not given here. [ ]: non-standard residue; d: D form. pT = C[C@@H](OP(=O)(O)O)[C@H](N)C(=O)O; pS = N[C@@H](COP(=O)(O)O)C(=O)O

T1: 14-3-3σ, full length, N-terminally His6-tagged (human, UniProt P31947 1-248)
T1 construct: 14-3-3 sigma (stratifin), human, full length; no tag cleavage is described for the full-length proteins; also called stratifin; SFN; source: E. coli BL21(DE3), purified (HisTrap, SEC)
T1 sequence (looked up): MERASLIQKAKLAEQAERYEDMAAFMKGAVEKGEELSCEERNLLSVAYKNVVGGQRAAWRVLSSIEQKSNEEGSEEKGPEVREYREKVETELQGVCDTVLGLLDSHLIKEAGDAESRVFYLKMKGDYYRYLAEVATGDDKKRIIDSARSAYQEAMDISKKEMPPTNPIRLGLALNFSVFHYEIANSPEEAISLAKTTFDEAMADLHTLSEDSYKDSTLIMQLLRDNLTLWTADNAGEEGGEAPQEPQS

T2: 14-3-3β/α, full length, N-terminally His6-tagged (human, UniProt P31946 1-246)
T2 construct: 14-3-3 beta/alpha, human, full length; also called His6-14-3-3β/α; source: E. coli BL21(DE3), purified (HisTrap, SEC); also in E. coli cell lysate (pulldown); not shown: His6, N-terminal, kept
T2 sequence (looked up): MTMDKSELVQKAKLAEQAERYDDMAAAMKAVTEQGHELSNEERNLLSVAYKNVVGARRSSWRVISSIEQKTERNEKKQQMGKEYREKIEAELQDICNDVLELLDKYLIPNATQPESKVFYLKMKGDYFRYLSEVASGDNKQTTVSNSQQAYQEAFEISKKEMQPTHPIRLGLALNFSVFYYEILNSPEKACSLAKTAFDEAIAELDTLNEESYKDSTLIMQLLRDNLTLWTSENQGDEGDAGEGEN

B1: acetylated (unlabeled) RAF1 peptide (peptide)
peptide: Ac-RQRST[pS]TPN
notes: source: synthetic peptide (Fmoc SPPS, HPLC purified)
B2: 14-3-3σ ΔC (aa 1–231) (domain or fragment, human, UniProt P31947 1-231, looked up)
chain: MERASLIQKAKLAEQAERYEDMAAFMKGAVEKGEELSCEERNLLSVAYKNVVGGQRAAWRVLSSIEQKSNEEGSEEKGPEVREYREKVETELQGVCDTVLGLLDSHLIKEAGDAESRVFYLKMKGDYYRYLAEVATGDDKKRIIDSARSAYQEAMDISKKEMPPTNPIRLGLALNFSVFHYEIANSPEEAISLAKTTFDEAMADLHTLSEDSYKDSTLIMQLLRDNLTLWT
notes: 14-3-3 sigma (stratifin), human, C-terminally truncated, residues 1-231; One monomer per asymmetric unit; the biological dimer is generated by crystallographic symmetry; also called 14-3-3 ΔC aa 1–231; source: E. coli BL21(DE3), purified (HisTrap, TEV cleavage, reverse HisTrap, SEC); not shown: His6, N-terminal, cleaved
B3: peptide 1, APN 38–46 pSer43, as used in ITC (peptide)
peptide: NKNAN[pS]SPV
notes: aminopeptidase N (APN, CD13), human, residues 38-46; source: synthetic peptide (Fmoc SPPS, HPLC purified)
B4: peptide 11, APN 36–73 pSer43 pThr63, as used in ITC and co-crystallisation (peptide, UniProt P15144 36-73, looked up)
peptide: EKNKNAN[pS]SPVASTTPSASATTNPASA[pT]TLDQSKAWNR
notes: aminopeptidase N (APN, CD13), human, residues 36-73; also called bis-phosphorylated peptide 11; source: synthetic peptide (Fmoc SPPS, HPLC purified)
B5: acetylated (label-free, unlabeled) peptide 1, APN 38–46 pSer43 (peptide)
peptide: Ac-NKNAN[pS]SPV
notes: aminopeptidase N (APN, CD13), human, residues 38-46; also called acetylated peptide 1; label-free peptide 1; source: synthetic peptide (Fmoc SPPS, HPLC purified)
B6: 14-3-3η, full length, N-terminally His6-tagged (natural protein, human, UniProt Q04917 1-246, looked up)
chain: MGDREQLLQRARLAEQAERYDDMASAMKAVTELNEPLSNEDRNLLSVAYKNVVGARRSSWRVISSIEQKTMADGNEKKLEKVKAYREKIEKELETVCNDVLSLLDKFLIKNCNDFQYESKVFYLKMKGDYYRYLAEVASGEKKNSVVEASEAAYKEAFEISKEQMQPTHPIRLGLALNFSVFYYEIQNAPEQACLLAKQAFDDAIAELDTLNEDSYKDSTLIMQLLRDNLTLWTSDQQDEEAGEGN
notes: 14-3-3 eta, human, full length; also called His6-14-3-3η; source: E. coli BL21(DE3), purified (HisTrap, SEC); also in E. coli cell lysate (pulldown); not shown: His6, N-terminal, kept

Data set [1] deals with T1, 14-3-3σ, full length, N-terminally …. In words: fluorescence polarisation; competition: dilution series of acetylated peptide (starting concentration 4000 µM) added to a premixed complex of 14-3-3σ (3 µM) and FITC-labeled RAF1 tracer (30 nM); 10 mM HEPES pH 7.4, 150 mM NaCl, 2 mM DTT, 0.01% Tween 20; 25 °C. To be noted: both partners purified. Background: Fluorescence polarisation rises when a labelled molecule tumbles more slowly, as on binding a larger partner.

Data set [2] concerns the molecule itself. As to the kind of experiment: crystal structure; 14-3-3σ ΔC (12.5 g/l) mixed 1:2 with peptide 1; sitting drops, 100 mM HEPES pH 7.3, 0.19 M CaCl2, 5% glycerol, 28% PEG400, 4 °C; space group C222(1), 1.60 Å.
In data set [3] the target is B6. As to the kind of experiment: ITC; 14-3-3η (500 µM; 250 µM for peptide 11) titrated into peptide (50 µM; 12.5 µM for peptide 11), 18 injections; 50 mM HEPES pH 7.4, 250 mM NaCl, 20 mM MgCl2; 25 °C. To be noted: both partners purified. A general note: In ITC the heat of successive injections is recorded.
In the data set “14-3-3σ ΔC (aa 1–231)” the target is B2. As to the kind of experiment: crystal structure; 14-3-3σ ΔC co-crystallised with peptide 11; sitting drops, 100 mM HEPES pH 7.7, 0.19 M CaCl2, 5% glycerol, 27% PEG400; space group C222(1), 1.20 Å; also solved in P1. To be noted: both partners purified.
For data set [4], the target named is T2, 14-3-3β/α, full length, N-terminally …. As to the kind of experiment: fluorescence polarisation; direct binding: dilution series of 14-3-3 protein added to FITC-labeled peptide (30 nM stock, 5 µl in 15 µl); 10 mM HEPES pH 7.4, 150 mM NaCl, 2 mM DTT, 0.01% Tween 20; 60 min at room temperature, read at 25 °C; four-parameter fit. To be noted: both partners purified.

Data set [5] deals with B6. The data set is described as above. To be noted: both partners purified.
Data set [6] concerns the target B3. As to the kind of experiment: ITC; 14-3-3η (500 µM; 250 µM for peptide 11) titrated into peptide (50 µM; 12.5 µM for peptide 11), 18 injections; 50 mM HEPES pH 7.4, 250 mM NaCl, 20 mM MgCl2; 25 °C. To be noted: both partners purified.

Turning to B1, the IC50 (in general, the midpoint of a concentration-inhibition curve) in data set [1] was determined as 13.4 ± 0.7 µM.
As for B2, the binding result in data set [2] is “binds”.
On to B3, for which, in data set [3], the affinity, expressed as Kd, was 2.18 µM.
In the case of B4, the binding result with 14-3-3σ ΔC (aa 1–231) is listed as “binds”.
Regarding NPASA[pT]TLD [peptide 15, monophosphorylated APN 9-mer pThr63 (site 2)], the Kd in data set [4] and in data set [5] was greater than 40 µM in each case.
Turning to B5, in data set [1], the IC50 was 18.8 ± 1.5 µM.
As for B6, the stoichiometry N – broadly, the number of molecules, sites or subunits per partner or assembly – in data set [6] was 1.05.
Consider PASATTLDQ (also: one phosphorylated Ser/Thr within Ser61–Thr64) [peptide 16, monophosphorylated APN 9-mer (noncanonical site of peptide 12)], for which the Kd in data set [4] and in data set [5] was greater than 40 µM each time.
Take TTNPASATT (also: one phosphorylated Ser/Thr within Ser61–Thr64) [peptide 14, monophosphorylated APN 9-mer (noncanonical site of peptide 10)]: the Kd in data set [4] and in data set [5] was greater than 40 µM each time.
